Source: ChEMBL document CHEMBL2074211, “Modulation of nitrated lipid signaling by multidrug resistance protein 1 (MRP1): glutathione conjugation and MRP1-mediated efflux inhibit nitrolinoleic acid-induced, PPARgamma-dependent transcription activation” (Biochemistry, 2006)

Substrate: CCCCC/C=C\C/C(=C\CCCCCCCC(=O)O[C@@H]1O[C@H](C(=O)O)[C@@H](O)[C@H](O)[C@H]1O)[N+](=O)[O-]
Experiment: TP_TRANSPORTER: vesicle uptake in MRP1-expressing membrane vesicles
Format: functional, cell membranes, MCF7/MRP1-10

B1: Multidrug resistance-associated protein 1 (Homo sapiens) (protein)
chain: MALRGFCSADGSDPLWDWNVTWNTSNPDFTKCFQNTVLVWVPCFYLWACFPFYFLYLSRHDRGYIQMTPLNKTKTALGFLLWIVCWADLFYSFWERSRGIFLAPVFLVSPTLLGITMLLATFLIQLERRKGVQSSGIMLTFWLVALVCALAILRSKIMTALKEDAQVDLFRDITFYVYFSLLLIQLVLSCFSDRSPLFSETIHDPNPCPESSASFLSRITFWWITGLIVRGYRQPLEGSDLWSLNKEDTSEQVVPVLVKNWKKECAKTRKQPVKVVYSSKDPAQPKESSKVDANEEVEALIVKSPQKEWNPSLFKVLYKTFGPYFLMSFFFKAIHDLMMFSGPQILKLLIKFVNDTKAPDWQGYFYTVLLFVTACLQTLVLHQYFHICFVSGMRIKTAVIGAVYRKALVITNSARKSSTVGEIVNLMSVDAQRFMDLATYINMIWSAPLQVILALYLLWLNLGPSVLAGVAVMVLMVPVNAVMAMKTKTYQVAHMKSKDNRIKLMNEILNGIKVLKLYAWELAFKDKVLAIRQEELKVLKKSAYLSAVGTFTWVCTPFLVALCTFAVYVTIDENNILDAQTAFVSLALFNILRFPLNILPMVISSIVQASVSLKRLRIFLSHEELEPDSIERRPVKDGGGTNSITVRNATFTWARSDPPTLNGITFSIPEGALVAVVGQVGCGKSSLLSALLAEMDKVEGHVAIKGSVAYVPQQAWIQNDSLRENILFGCQLEEPYYRSVIQACALLPDLEILPSGDRTEIGEKGVNLSGGQKQRVSLARAVYSNADIYLFDDPLSAVDAHVGKHIFENVIGPKGMLKNKTRILVTHSMSYLPQVDVIIVMSGGKISEMGSYQELLARDGAFAEFLRTYASTEQEQDAEENGVTGVSGPGKEAKQMENGMLVTDSAGKQLQRQLSSSSSYSGDISRHHNSTAELQKAEAKKEETWKLMEADKAQTGQVKLSVYWDYMKAIGLFISFLSIFLFMCNHVSALASNYWLSLWTDDPIVNGTQEHTKVRLSVYGALGISQGIAVFGYSMAVSIGGILASRCLHVDLLHSILRSPMSFFERTPSGNLVNRFSKELDTVDSMIPEVIKMFMGSLFNVIGACIVILLATPIAAIIIPPLGLIYFFVQRFYVASSRQLKRLESVSRSPVYSHFNETLLGVSVIRAFEEQERFIHQSDLKVDENQKAYYPSIVANRWLAVRLECVGNCIVLFAALFAVISRHSLSAGLVGLSVSYSLQVTTYLNWLVRMSSEMETNIVAVERLKEYSETEKEAPWQIQETAPPSSWPQVGRVEFRNYCLRYREDLDFVLRHINVTINGGEKVGIVGRTGAGKSSLTLGLFRINESAEGEIIIDGINIAKIGLHDLRFKITIIPQDPVLFSGSLRMNLDPFSQYSDEEVWTSLELAHLKDFVSALPDKLDHECAEGGENLSVGQRQLVCLARALLRKTKILVLDEATAAVDLETDDLIQSTIRTQFEDCTVLTIAHRLNTIMDYTRVIVLDKGEIQEYGAPSDLLQQRGLFYSMAKDAGLV
- Km: 0.75 µM
